Experimental data taken from patent publication US20230265187A1 (published 2023).

T1: human TIGIT on Jurkat cells (TIGIT/NFAT reporter Jurkat cells, BPS Bioscience #60538); Promega TIGIT Effector … (human, UniProt Q495A1 22-244)
T1 construct: whole, on cells; Same protein on two bought Jurkat lines (flow cytometry: BPS; bioassay: Promega); also called hu TIGIT cells; cells expressing human TIGIT
T1 sequence (looked up): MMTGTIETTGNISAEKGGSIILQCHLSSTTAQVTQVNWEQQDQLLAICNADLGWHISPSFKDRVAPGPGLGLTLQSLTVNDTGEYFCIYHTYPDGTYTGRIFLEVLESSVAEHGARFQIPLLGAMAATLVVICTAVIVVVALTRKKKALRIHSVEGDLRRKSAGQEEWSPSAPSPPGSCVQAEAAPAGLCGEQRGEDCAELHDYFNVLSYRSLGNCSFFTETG

T2: his-tagged murine TIGIT (Acro Biosystems #TIT-M52E6) (murine, UniProt P86176 29-148, limits assumed)
T2 construct: Bought protein; also called mouse his-tagged TIGIT; not shown: his tag
T2 sequence (looked up): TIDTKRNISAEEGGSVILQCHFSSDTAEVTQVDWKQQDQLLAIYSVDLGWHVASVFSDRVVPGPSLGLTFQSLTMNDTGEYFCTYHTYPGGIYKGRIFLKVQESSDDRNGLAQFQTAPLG

T3: his-tagged human TIGIT (Acro Biosystems #TIT-H52H3) (human, UniProt Q495A1 22-141)
T3 construct: Bought protein; also called His-tagged-TIGIT (human); not shown: his tag
T3 sequence (looked up): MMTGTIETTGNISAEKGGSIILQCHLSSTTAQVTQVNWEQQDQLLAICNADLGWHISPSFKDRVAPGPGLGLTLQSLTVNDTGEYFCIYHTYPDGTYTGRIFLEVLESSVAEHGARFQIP


Columns and labels:
[1] = biological target: T1, human TIGIT on Jurkat cells (TIGIT/NFAT …); test: flow cytometry, TIGIT/NFAT Jurkat cells, 10 ug/ml
[2] = biological target: T2, his-tagged murine TIGIT (Acro …); test: ELISA, coated His-TIGIT, 1 ug/ml
[3] = biological target: T4, His-tagged cynomolgus monkey TIGIT (Acro Biosystems #TIT-05223) (cynomolgus monkey, UniProt A0A7N9I9V4 89-209); test: ELISA, coated His-TIGIT, 1 ug/ml
T4 construct: Bought protein; also called cyno TIGIT; cynomolgus TIGIT; not shown: His tag
T4 sequence (A0A7N9I9V4 entry or part of it): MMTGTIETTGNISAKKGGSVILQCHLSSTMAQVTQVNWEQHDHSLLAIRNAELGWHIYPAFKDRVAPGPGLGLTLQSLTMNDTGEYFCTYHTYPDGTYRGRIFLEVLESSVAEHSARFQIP

[4] = biological target: T3, his-tagged human TIGIT (Acro Biosystems …); test: ELISA, coated His-TIGIT, 1 ug/ml
[5] = biological target: T1, human TIGIT on Jurkat cells (TIGIT/NFAT …); test: cell-based or functional assay
[6] = biological target: T2, his-tagged murine TIGIT (Acro …); test: SPR (Carterra LSA), scFv-Fc captured, His-TIGIT analyte
Procedure, shortened: (§1)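 SPR: scFv-Fc from supernatants (diluted 30-fold in HBSTE) captured on anti-human Fc-coupled HC30M chip; His-tagged TIGIT injected as 1:2 dilution series. Kinetic affinities fitted from sensorgrams.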

[7] = biological target: T4, His-tagged cynomolgus monkey TIGIT …; test: as above
Procedure, shortened: as §1

[8] = biological target: T3, his-tagged human TIGIT (Acro Biosystems …); test: as above
Procedure, shortened: as §1

[9] = biological target: T4, His-tagged cynomolgus monkey TIGIT …; test: SPR (Carterra LSA), scFv-Fc captured, His-TIGIT analyte; repeat
Method: (§2) Binding affinities of anti-TIGIT antibodies to human, cyno, and murine TIGIT were measured by Surface Plasmon Resonance (SPR) on a Carterra LSA instrument. Goat anti-human Fc antibody was amine coupled to a HC30M chip. ScFv-Fc supernatants were diluted 30-fold with HBSTE and were captured by the anti-human Fc coupled HC30M chip. A 1:2 dilution series of his-tagged human TIGIT, starting at 400 nM, was injected onto the chip for binding. A dilution series was also carried out for cyno TIGIT and murine TIGIT. Data were analyzed using the Carterra™ Kinetics software.

[10] = biological target: T2, his-tagged murine TIGIT (Acro …); test: as above
Method: as §2

Row | MFI [1] [MFI] | Elisa OD450 [2] [OD450] | Elisa OD450 [3] [OD450] | Elisa OD450 [4] [OD450] | max. signal (% of 22G2) [5] | Kd [6] [nM] | Kd [7] [nM] | Kd [8] [nM] | Kd [9] [nM] | Kd [10] [nM] | Binder
1 | 8960 | 1.9 | 1.77 | 1.85 | 92 % of 22G2 | 96 | 14.4 | 1.81 |  |  | 43586p2.F02 (scFv, V domains shown) VH: EVQLLESGGGLVQPGGSLRLSCAASGFTFDDYVMSWVRQAPGKGLEWVSLINWNGDKTYYADSVKGRFTISRDNSKNTLYLQMNSLRAEDTAVYYCARHWIVLQYGLDVWGQGTTVTVSS VL: QSVLTQPLSASGTPGQRVTISCSGVSSNIEIKYVSWYQQLPGTAPKLLIYNSHQRPSGVPDRFSGSKSGTSASLAISGLQSEDEADYYCTSWDDRLKSWVFGGGTKLTVL
2 | 9200 | 1.93 | 1.92 | 1.98 | 104 % of 22G2 | 6.23 | 2.09 | 0.307 |  |  | 43586p2.F11 (scFv, V domains shown) VH: EVQLLELGGSLVQPGGSLRLSCAASGFTFDDYVMSWVRQAPGKGLEWVSLINWNGDKTYYADSVKGRFTISRDNSKNTLYLQMNSLRAEDTAVYYCARHWIVFQYGLDVWGQGTTVTVSS VL: QSVLTQPLSASGTPGQKVTISCSGVSSNIEIKYVSWYQQLPGTAPKLLIYNSHQRPSGVPDRFSGSKSGTSASLAISGLQSEDEADYYCTSWDDRLKSWVFGGGTKLTVL
3 | 10300 | 0.053 | 1.36 | 1.77 | 108 % of 22G2 |  | 24.5 | 0.416 | 1.9 |  | 43645p1.D8 (scFv, V domains shown) VH: EVQLLESGGDLVQSGGSLRLSCAASGFSFWGYAMTWVRQAPGKGLEWVSTIAGNSYAYYADSVKGRFTISRDNSKNMVYLQMNGLRAEDTAVYYCAKDRSFYNYYDIDVWGQGTTVTVSS VL: not shown
4 | 9070 | 0.046 | 1.41 | 1.96 | 109 % of 22G2 |  | 63 | 0.386 | 33 |  | 43586p2.A03 (scFv, V domains shown) VH: EVQLLESGGGLVQPGGSLRLSCAASGFTFTSYAMSWVRQAPGKGLEWVAGISYIGRNEYYADSVKGRLTISRDNSKNTLYLQMNNLRAEDTAIYYCAKHLTGGTTDYYYYGMDVWGQGTTVTVSS VL: QSVLTQPPSASGTPGQRVTISCSGSTSNIGTSRYVHWYQQLPGTAPKLLIYFDSQRPSGVPDRFSASKSGTSASLAISGLQSEDEADYYCATWDDSLSAWVFGGGTKLTVL
5 | 8950 | 1.85 | 1.61 | 2.42 | 111 % of 22G2 |  |  | 0.0464 | 0.93 | 42 | 43645p1.B2 (scFv, V domains shown) VH: EVQLLESGGGLVQPGGSLRLSCATSGFTFSSYWMSWVRQAPGKGLEWVSGIHISDSTYYADSVKGRFTISRDNSKNTLYLQMNSLRAEDTAVYYCAKGHTVLQYGMDVWGQGTTVTVSS VL: QSGLTQPPSASGTPGQRVTISCSGDISNTRNNYVSWYQQLPGTAPKLLIYGNHQRPSGVPDRFSGSKSATSASLAISGLQSEDEADYHCGTWDNTLNAWVFGGGTKLTVL
6 | 9950 | 0.947 | 1.53 | 1.99 | 103 % of 22G2 |  | 6.96 | 0.0267 | 5.5 |  | 43645p1.E3 (scFv, V domains shown) VH: EVQLLESGGGLVQPGGSLRLSCAASGFTFSSYAMSWVRQAPGKGLEWVSAIYFDGSIYDADSVKGRFTISRDNSKNTLYLQMNSLRDEDTAVYYCAKSHTVLQYGMDVWGQGTTVTVSS VL: QSVLTQPPSASGTPGQRVTISCSGVTSNIRNSYVSWYQQLPGTAPKLLIYGNDQRPSGVPDRFSGSKSGTSASLAISGLQSEDEADYYCGTWDNTLNAWVFGGGTKLTVL
7 | 12400 | 1.01 | 1.73 | 1.94 | 99 % of 22G2 |  |  | 0.0507 | 0.368 |  | 43645p1.G5 (scFv, V domains shown) VH: EVQLLESGGGLVQPGGSLRLSCAASGFTFSSYYMSWVRQAPGKGLEWVSAISIFSGDSTYYADSVKGRFTISRDNSKNTLYLQMNSLRAEDTAVYYCAKSHTVLQYGMDVWGQGTTVTVSS VL: QSVLTQPPSASGTPGQRVTISCSGVTSNIRNYYVSWYQQLPGTAPKLLIYGNDQRPSGVPDRFSGSKSGTSASLAISGLQSEDEADYYCGTWDNTLNAWVFGGGTKLTVL
8 | 9170 | 0.048 | 1.25 | 1.93 | 124 % of 22G2 |  | 31.6 | 0.292 | 16 |  | 43586p1.1.H8 (scFv, V domains shown) VH: EVQLLESGGGLVQPGGSLRLSCAASGFTFIDFWMSWVRQAPGKGLEWVSAISWIGDTYYYADSVKGRFTVSRDNSKNTVYLQMNSLRAEDTAVYYCAKHWTVYQYGMDVWGQGTTVTVSS VL: QSVLTQPPSASGTPGQRVIISCSGSTSDIETKYVSWYQQLPGTAPKLLIYGNHQRPSGVPDRFSGSKSGTSASLAISGLQSEDEADYYCTAWDNTLKSWVFGGGTKLTVL
9 |  |  |  |  |  |  | 38.1 | 0.223 | 4.6 |  | 43586p1.2.F6 (scFv, V domains shown, Tested as scFv-Fc supernatant; also called 43586p1.2.F06) VH: EVQLLESGEGLVQPGGSLRLSCAASGFTFTSYLMSWVRQAPGKGLEWVSTITWDGDRTYYADSVKGRFTISRDNSKNTLYLQMNSLRVGDTAVYYCAKHWTVFQYGMDVWGQGTTVTVSS VL: QSVLTQPASASGTPGQRVTISCSGTISNIETKYVSWYQQLPGTAPKLLIYGNHQRPSGVPDRFSGSKSGTSASLAISGLQSEDEADYYCASWENDLKSWVFGGGTKLTVL
10 | 9720 | 1.95 | 1.15 | 2.03 | 110 % of 22G2 | 1.65 | 339 | 2.69 |  |  | 43586p2.G01 (scFv, V domains shown) VH: EVQLLESGGGLVQPGGSLRLSCAASGFTVSSNWMSWVRQAPGKGLEWVSTTSSSSWNNYTYYADSVKGRFTISRDNSKNTLYLQMNSLRAEDTAVYYCAKGSYGMDVWGQGTTVTVSS VL: QSVLTQPPSASGTPGQRVTISCSGSNSNIGAKYLYWYQQLPGTAPKLLIYLNDRRPSGVPDRFSGSKSGTSASLAISGLQSEDEADYYCAFWDDHLKGWVFGGGTKLTVL
11 | 9130 | 1.93 | 1.09 | 2 | 80 % of 22G2 | 3.94 | 334 | 2.53 |  |  | 43586p2.H02 (scFv, V domains shown) VH: EVQLLESGGGLVQPGGSLRLSCATSGFTVSDHYVSWVRQAPGKGLEWVSTSSSTNWNDGRTYYADSVKGRFTISRDNSENTLYLQMNSLRAEDTAVYYCAKGSYGMDVWGQGTTVTVSS VL: QSVLTQPPSASGTPGQRVTISCSASNSYIGTKYFYWYQQLPGTAPKLLIYLDSQRPSGVPDRFSGSKSGTSVSLAISGLQSEDEADYYCAFWDDHLHGWVFGGGTKLTVL
